Experimental findings from a protein production outcome set (Wang et al. 2014) are described below.

The data set can be described thus: label from the status in PepcDB records.
For “MEKPIKTQWQLLMDNRNRFFWLLQAGGWIGYALVNYIGSLMHEMRDIYTLIIILGAYAGFLSTIPLRYLYRRIWEFPPALMVLIAIVVSYVTAVAWAIVDNATYWEIYKFGFRPDSPFFYLKNSLAKFYIILSWSGLYFGIKYYQMLQEEKQKALLASSMAHQAQLKMLRYQLNPHFLFNTLNAISTLILLKENEKANLMVNKLSHFLRFSLDNEPIKKVTLEKEVDALLLYLDIEKVRFDEQLEIDIHLSDETKNALVPSLICQPLIENSIKYAISNVEGVGKIRVRSWSEKENLILEVCDNGPKIETDPEKLFRKDGVGLNNTRQRLKSLYGKQYRFEMLKGAESGLCVRITIPMEMLESQR”, the protein production entry is “failed”.
In the case of “MAEVERPQLYLVTPPEIDLEIFPDRLAAVLDSTEVACLRLALAGKDEDRIARTGDALREVAHARDVALVIENHVLMVERLGLDGVHLTDGARLVRKLRKDLGPDAILGAFCGRTRHEGINAAEAGADYVAFGPVGTTALGDGSLAEAELFGWWSEMIEVPVVAEGALTPEKVAELAPLTDFFAVGEEIWREEDAAAALRRLLAPLGLEHHHHHH”, the protein production entry is on record as “not failed”.
Turning to “MTQFKLIGFDLDGTLVNSLPDLALSINSALKDVNLPQASENLVMTWIGNGADVLSQRAVDWACKQAEKELTEDEFKYFKRQFGFYYGENLCNISRLYPNVKETLEALKAQGYILAVVTNKPTKHVQPILTAFGIDHLFSEMLGGQSLPEIKPHPAPFYYLCGKFGLYPKQILFVGDSQNDIFAAHSAGCAVVGLTYGYNYNIPIAQSKPDWIFDDFADILKITQ”, the protein production result is “not failed”.
For “MTKSPARLISFISIAIAINLVGANLALFLRLPIYLDTIGTLLIAVILGPWYAASTAFLSALINWMTTDIFSLYYSPVAIVVAIITGILIKRNCKPSSLLWKSLIISLPGTIIASVITVILFKGITSSGSSIIAQFLHGIGLDMTSSLILVQVGTDYMDRLISLILVFSTITLLKKHSPNLINQRF” the value was “failed”; for “GSEEEEIPFRCFICRQAFQNPVVTKCRHYFCESCALEHFRATPRCYICDQPTGGIFNPAKELMAKLQK”, “not failed”; for “MENYHRLYELSPLITGWTICVMILRIYKKMLNDHSFELHLILQDEAGKRIEVTIGTRFSAFYYDRLIENQWKMISTFLGTVLLNNFTPFDYILEHSVRKDTLVDLLGALIDFDWLTNSAPNGSDMDGFKLQFRFIDSKFTIYSQDILQCEAHGEYAVDLEKKFRSVRNNKVVIALAFWKIVTYFDGGHRMKIASHAPISTVYPDPDIEPVKEIKMVCIY”, “failed”.
Turning to “MFIGIVSLFLTVLVYLGAKKVYQRFPRVYTSPLLVTPAVLVGLLLLVNVPYESYNLGGGLLTDMLQPATVAFAIPLYKYFPVLKKYAVEIILNVAVGSCIAIISTALIAKWLHLGTGLIDSLVPRSVTTPIAVHVSEMIGGMPAVTAVFVILTALLGTVIGPMVIRYFRIDNEIARGVLLGTSAHGAGTSKAFELSSVSGTISSVSMILAAIMTLWPAPFCFHLCKKLSSRGQFFLCASPY”, the protein production entry is reported as “failed”.
With “MAIVKMNKFTLLAFESEKEKLLKKIQSSSEVEFINLQDEEKVEGNEVFESLSKDDLDAETTLIEENVSKTRSALDFLKEFVAEVGGLKALKAGKESLTLDELEVKVENSNWEVVYSEVKKMERELATLENEKTKLLGEIEILEPWQSFDAPLGELNNFEKVVAFLGVISSQNLENMKNEIESEFKESYIEVISNTDQDSYVFVMTMKERAEEMDEVLKNFGFSAFQTKYKEKASVLVEEFKLKIQEIEAQKSDLKGVLSNYREEKRTLELAYEYYSNILLRKEASENFLKTDKVVVIQGWVPKNDNSSLEGIIQSSVGDMYYLEFEEVKEEEVAEVPVKLHNKGPAAAFDSITEMYSLPRYDEIDPTPLLTPFYLVFFGMMVADLGYGLVLFVGSLLAMKLLNLDEAQEKFAKFFMYLSIATTIAGAVFGTAFGFELKSIGLINPSKDTNLLLILSVGFGVIQIFFGLFIKAYMLIRDKQYLYALFDVGSWIMLLIGLPMIFFDGPISLVGKVLSIVGSILIILTQGRDEETKGAQIGQGLYALYGITGYVGDLVSYTRLMALGIAGGSIAAALNLIIGMFPGIAVIIVGPLFFIAAHTFNMLLSLLGAYVHTARLQYVEYFSKFYEGGGKAFTPFRTINKFITIKRNK”, the protein production entry is recorded as “failed”.
For “MKMKILGISFGTKNGNNDTMCKVALKGAKEAGAEVEFIQMSSINIKHCTGCCACVKTLLSGKGSMCVLKDDFEWLLDKMKDADGIVVSDPIFEEGASGLFHTIMDRFGPRADRGNNIIGTKVAEAIGGKIPDSRMLNDKVISFMGIGGSDWGTRVQCEHAMLALIPMWKVIDNAWFPWAKELVMDDTRLVQVHQIGLNIVEAAKDFEKASYQGEEGVCPHCHNRLFYLEPGTKKAICALCGIVGELDTISGKTIFSFPEEQLGHAHDTLPGKFIHGDDIKKMEGHYAEVRKTQEFKERKTSYNFIETLTKEKQAGVSLG”, the protein production result was “failed”.
As for “LEQVQESKAESTAPSSDAVVVSKTNTSSMPVAELRSLIDDLTTQMGTAARELKFELAGRLRDEIAELKKELRGMEEIGLA”, the protein production result is given as “failed”.
The same measure for “MDMQHRIRQLFQASIETKQQALEVLPPYIEQASLVMVNALLNEGKILSCGNGGSAGDAQHFSSELLNRFERERPSLPAVALTTDSSTITSIANDYSYNEVFSKQIRALGQPGDVLLAISTSGNSANVIQAIQAAHDREMLVVALTGRDGGGMASLLLPEDVEIRVPSKITARIQEVHLLAIHCLCDLIDRQLFGSEE”: “not failed”.
Turning to “MPLRSAGSGKASRDAVHHPLFARSYARISVTAETRLGMGGVRDRLLAGLSGRVIEIGAGNGLNFAHYPGAVSEVVAIEPERLLRQLAVEAALRCDVPVDVVPGAAEALPVKSEAFDAAVVSLVLCSVRDVSRALGELRRVLRPGGTLRFFEHGAGGGRAMAATQRALDRTVWPRLNGGCHLTRDAVSAVREAGFELGPYRRMLLPEKGPRLPTSYCVLGTAWRPGSAD”, the protein production entry is reported as “failed”.
As for “MSRSSSPPLAPARRTRGGHACLALAMVLAGSTVPASKLIAAEVAPFTATAIRLGLALPVFLLLMRATGARWPRPGRRDACLLALQAAAGSVGYTALLIAGLRLTSAADAAVVIGTLPAVTALLAMAVLRERPPPRTLAAIALAAAGVLVLVGGRTDDAPGSLAGNLLVLGAVVCEGLFILLSKRLRAPIAPLPLSAALTAIGAVLAGAAALAEAPWHAAFGSPALAVLAYYAWLPTVAGFVLWYAGLARASASEAALFTALAPVAAVLLAALALGETVGPRQAAGIGCVLAAVLALRPGGDKQSQKENIK”, the protein production entry is given as “failed”.
Consider “MLNRVFLEGEIESSCWSVKKTGFLVTIKQMRFFGERLFTDYYVIYANGQLAYELEKHTKKYKTISIEGILRTYLERKSEIWKTTIEIVKIFNPKNEIVIDYKEI”, for which the protein production result is “not failed”.
Regarding “MTTNRETVLSMAKRKRSVVAINASGWRSNGEVMGLQIKDGVLYKDYDAAGYTGAEACVFFDDGTMKVYGNREVDADILISKGARNSFAFGIWLVKDSKPRTAQMTTWADLNVKHPRQAIGQRSDGTLVIITVDGRSLRSSGITAYDMPSLFLSEGCINAFLLDGGGSSQTAVEGKYINNISDGIERAVVDTLTISYPDDLEHHHHHH”, the protein production entry is “failed”.
On to “MSIVSISYNQEEYIREALDGFAAQRTEFPVEVIIADDASTDATPRIIGEYAARYPQLFRPILRQTNIGVHANFKDVLSAARGEYLALCEGDDYWTDPLKLSKQVKYLDRHPETTVCFHPVRVIYEDGAKDSEFPPLSWRRDLSVDALLARNFIQTNSVVYRRQPSYDDIPANVMPIDWYLHVRHAVGGEIAMLPETMAVYRRHAHGIWHSAYTDRRKFWETRGHGMAATLEAMLDLVHGHREREAIVGEVSAWVLREIGKTPGRQGRALLLKSIADHPRMTMLSLQHRWAQTPWRRFKRRLSTELSSLAALAYATRRRALEGRDGGYRETTSPPTGRGRNVRGSHA”, for which the protein production result is given as “failed”.
Turning to “MDPSAPALDSAFWITTGAILLLLILSGFFSGSETALTAASRGKLRSQADKGSKGAQKALAITDDNERLIGSVLLGNNLVNILAASLATALFTRAFGESGVALATLVMTLLVLIFAEVLPKTYAITNSEKAAAAVAPIIGVVVMVFSPVVALVRLLVRGVLRLFGVRIDPDSHIMAVREEIAGALYLGHSEGVVEKEDRDRILGALDLAERTVEEIMLHRSNIVMLDADAEPETILEHCLQSPHTRLPVYRGEPENIIGVVHAKDLFRAMYAQVGGSEGHTARLKDFDISRVANAPYFVPETTTLDDQMRAFLRMRSHFALVVDEYGSLRGLITLEDILEEIVGEITDEFDPAAEMPVTRSDDGQFLVDGAMTIRDVNRAMDWSLPDDEANTVAGLVIHEAQMIPTVGQVFAFHGFRFEVTGREGNRITGLKIRPL”, the protein production result was “failed”.
For the sequence “MKSFVATVLVALLFIVALVFGARNEQVVTISYFVAQGEYRLPVVLAVVFFTGFMLSWLVASYYIVRLKLALAATRKKLTLQTAKKPQGVDA”, the protein production result is listed as “failed”.
For the sequence “DAGGGVGKELVDLKIIWNKTKHDVKVPLDSTGSELKQKIHSITGLPPAMQKVMYKGLVPEDKTLREIKVTSGAKIMVVGSTI”, the protein production result is listed as “not failed”.
In the case of “RTRALYDLGRELASALTASQIIETAVGRLEPLFRAKVMLFIPNSEDRLRAATETGNDADAGVAQWVFDNQQPAGLGTNTLPSNAALYVPLKAPMRVRGVIALLPEDAVHPFLPEQQRLLETCAAQIALALERVHYVEVAQDAIV”, the protein production entry is “failed”.
For the sequence “MEKEIKEKNLPLELTLVEASPRVGGKIQTVKKDGYIIERGPDSFLERKKSAPQLVKDLGLEHLLVNNATGQSYVLVNRTLHPMPKGAVMGIPTKIAPFVSTGLFSLSGKARAAMDFILPASKTKDDQSLGEFFRRRVGDEVVENLIEPLLSGIYAGDIDKLSLMSTFPQFYQTEQKHRSLILGMKKTRPQGSGQQLTAKKQGQFQTLSTGLQTLVEEIEKQLKLTKVYKGTKVTKLSHSGSCYSLELDNGVTLDADSVIVTAPHKAAAGMLSELPAISHLKNMHSTSVANVALGFPEGSVQMEHEGTGFVISRNSDFAITACTWTNKKWPHAAPEGKTLLRAYVGKAGDESIVDLSDNDIINIVLEDLKKVMNINGEPEMTCVTRWHESMPQYHVGHKQRIKELREALASAYPGVYMTGASFEGVGIPDCIDQGKAAVSDALTYLFS”, the protein production entry is reported as “failed”.
For “MASGLFENDGIKDNKARDFFYSHSSLIVFFLLLLGFGYYLGKLLFGGSSLEVYLDLRDKHERLQQEITELQSKNVRLQKRLFELKELRPRD” the value was “failed”; for “MEEERRDDYKFLRIQDAFKALHLHVNLIGVIVELGFSNGSDCSCTLKIVDPWYSGSGLPVKFVARTIRDLPRVESIGDIILLSRVKIVLINRKITALCNETTSSSFALFNGKHSVDSIPYQSSPKFLMREQDKNFLSNLREWMITYKFEDGS”, “not failed”; for “MSALFLMKTLGLFIATAIAEIVGCYLPYLWLKEGHSVWLLIPAAVSLALFAYLLTLHPAESGRVYAAYGGIYVLTAIVWLRIVDKSPLSNFDLIGTAFVLTGMGILVYGWR”, “failed”.
Regarding “PWQPPADLSGLSIEEVSKSLRFIGLSEDVISFFVTEKIDGNLLVQLTEEILSEDFKLSKLQVKKIMQFING”, the protein production result is listed as “not failed”.
In the case of “MAEEKIKKSLLAADDSDDEYSRGDTVSDQTELSSILDKLSLEPKTEKKKLLVLSLSGLLLHRVHKKELRKKPKNRSPDASCGPNLVYKRPFAEEFMKFCLERFEVGIWSSACELVSSLNILIVTGPRECTDSGYKTLENRYKPLFFKDLSKVFKCFKGFSASNTIFIDDEPYKALRNPDNTGLFPMSYDASNIKDNLLDPEGELCSYLEGLAKSSDVQAYIKVHSFGRPMIDSSHPDWSFYSNVSKIVS”, the protein production result is “failed”.
The same measure for “MPKRSKEDTEITIQKIMDAVVDQLLRLGYDKMSYTTLSQQTGVSRTGISHHFPKKTDFTAALDGRIFKMFIEHLEFEKGLDAFSQSWIKALEDSEFLAILRLLFHHIVTSESAHEFAANGIDRLYKMVESQFGSGGDKELEWLIGRSLIQMSK”: “not failed”.
